Several values for one entry are separate records, joined by “and”; a condition that tells them apart may be missing. Equal values may be shown once.
Tests used:
CD33+ MOLM14 cells = assay: Cytotoxicity assay, sCAR-T cells + anti-CD33 (hP67.6) switches; assay type: cell-based; design: unit not given here; settings: duplicates
Text: (§1) FIG. 38A illustrates multiple fusion/grafting locations: A=LCNT1 (light chain N terminus version 1), B=HCNT3 (heavy chain N terminus version 3), C=heavy chain C terminus, and D=light chain C terminus). […] Data shown are an average of duplicate samples, and error bars represent SD. Only the NT switches plus the BvCT and By CH1CL1 as references are depicted.
(§2) Monovalent and bivalent combinations of these switches were expressed and tested in cytotoxicity assays at a dose titration within the range of 0.4 nM to 0.0001 nM. […] Data shown are an average of duplicate samples, and error bars represent SD. Only the NT switches plus the BvCT and By CH1CL1 as references are depicted. cytokine secretion was measured.

MOLM14 cell line = assay: Cytokines in cytotoxicity assay supernatant (CBA Human Th1/Th2 II Kit); assay type: cell-based; design: unit not given here; settings: duplicates
Text: as §1, §2

Nalm-6^Luc/GFP cells = assay: Nalm-6 Luc/GFP leukemia xenograft; assay type: in vivo; settings: IgG format
Procedure: NSG mice were inoculated with CD19^+ Nalm-6^GFP/Luc cells. Six days later, 40×10^6 sCAR-T cells were delivered IV and switch dosing commenced every other day at 0.5 mg/kg for 10 days. Tumor burden was followed by luminescence after injection of luciferin and imaged on an in vivo imaging system (IVIS; PerkinElmer, Waltham, Mass., USA).
Asterisks indicate significance from LCNT Fab group. Data are represented as means±SEM, and statistical significance was calculated using the 2-way ANOVA with Bonferroni's post-test (B & E; shown for final time-point only) or by one-tailed student's t-test (C & F) where *=p<0.05, **=p<0.01 and ***=p<0.001.
NSG mice were inoculated with Nalm-6^GFP/Luc as described in FIG. 28. […] A fourth group consisted of two cohorts (n=3) of mice injected I.V. with sCAR-T cells without (−) LCNT Fab switch. LCNT Fab dosing in the indicated group was carried out daily at 0.5 mg/kg after the initial T cell infusion. Luminescence was measured at 6 h and subsequently every 24 h as indicated. Cohorts were sacrificed for analysis immediately following IVIS imaging. […] Gray lines indicate tumor burden in PBS and sCAR-T cell—LCNT Fab controls. […] Data are represented as means±SEM, and statistical significance was calculated using the one-tailed student's t-test (C & D) where *=p<0.05, **=p<0.01 and ***=p<0.001.
NSG mice were inoculated with Nalm6^GFP/Luc and six days later engrafted with short-dimeric sCAR-T cells as described in FIG. 29. […] Dosing was carried out for 15 d starting at day 6 (corresponding with sCAR-T cell infusion) as indicated by gray shading. Control groups CART-19 and PBS received no switch. The NS group received sCAR-T cells but no switch. Open circles denote the death of individual mice without evidence of tumor burden and may reflect GVHD. Triangles in PBS, NS and q.a.d. group indicate death due to increasing tumor burden. […] (19) indicates CART-19. […] (19) indicates CART-19. […] Triangles indicate the death of individual mice with significant tumor burden. The single mouse death in the 0.05 mg/kg group occurred while tumor burden was decreasing. […] Statistical significance was calculated using the one-tailed student's t-test (B, C & E) where *=p<0.05, **=p<0.01 and ***=p<0.001.
The different sCAR designs were tested in a xenograft model harboring luciferized NALM-6 (CD19+, CD80−, CD86−) cells. 1 mg/kg monovalent switch “A” was administered along with sCAR cells. […] Optimized hinge improved response. Short hinge CARs have faster clearance. Short, dimeric hinge CARs have improved persistence. Tumor burden was visualized with IVIS imaging. Experiments are repeated with a humanized scFv and bivalent switches.
Activity of the switchable CAR-T cell platform in vivo was evaluated via tumor regression in a Nalm-6^Luc/GFP leukemia xenograft model in immunodeficient NOD scid gamma (NSG) mice. These mice without treatment succumb to disease within 21 days. The impact of CAR hinge design on in vivo efficacy was determined using mice inoculated with Nalm-6^Luc/GFP, followed by I.V. injection of long, short, or short-dimeric sCAR-T cells 6 days later. The LCNT Fab was dosed I.V. (0.5 mg/kg) every other day for 10 days and tumor regression was followed by in vivo imaging (IVIS) of the luciferase signal from Nalm-6^Luc/GFP cells (FIG. 29A).
The effect of switch grafting position on the control of tumor burden was determined. As with the previous model, short-dimeric CAR-T cells were injected 6 days after tumor inoculation and mice were treated every other day (starting at day 6) with 0.5 mg/kg LCNT, HCNT, NTBV, LCC1, or HCCT Fab switches (FIG. 29D).
To determine the proliferation and localization of sCAR-T cell cytotoxicity during this time interval, mice were sorted into 5 cohorts per treatment regimen and analyzed at 8, 24, 48, 72, and 96 h after treatment with short-dimeric sCAR-T cells+LCNT Fab switch or with conventional CART-19 and no switch. […]

CD123+ MOLM14 cells = assay: Flow cytometry based cytotoxicity assay, sCAR-T cells + anti-CD123 Fab switches; assay type: cell-based; settings: duplicates
Procedure: as §1
The flow cytometry based cytotoxicity assay were performed in RPMI-1640 media supplemented with 5% heat inactivated FBS, 1% Pen/Strep, 1% glutamine, and 1% Sodium pyruvate. Target cells (2×10^4 cells) were pre-labeled with CellVue Claret Far Red Fluorescent Cell linker (Sigma-Aldrich) and co-cultured with 1×10^5 sCAR-T cells. Variable concentration of switch was added to assess in vitro activity. This assay was conducted in a volume of 100 ul in 96-well U bottom plate for 24 hours, after which the cells were stained with 7-AAD viability dye (1:100; BD Biosciences) in FACs staining buffer (PBS with 2 mM EDTA and 1% FCS) and acquired on BD Accuri C6 flow cytometer. The viability was calculated as following formula: […]=[(no switch viable target cells-experimental viable target cells)/no switch viable target cells]*100
Activity was confirmed by flow cytometry based cytotoxicity assay (FIG. 38J & FIG. 38K). FIG. 38J and Table 31. […] FIG. 38K and Table 32.

hP67.6 LCNT: anti-CD33 hP67.6 Fab, GCN4 on light chain N-terminus, GGGGS linker (SEQ ID 217 & 232)
cytotoxicity (FIG. 38G) (CD33+ MOLM14 cells; switch 0.1 pM): 0
cytotoxicity (FIG. 38G) (CD33+ MOLM14 cells; switch 0.64 pM): 5.9 and 4.6
cytotoxicity (FIG. 38G) (CD33+ MOLM14 cells; switch 3.2 pM): 36.9 and 35.9
cytotoxicity (FIG. 38G) (CD33+ MOLM14 cells; switch 16 pM): 58.7 and 59.2
cytotoxicity (FIG. 38G) (CD33+ MOLM14 cells; switch 80 pM): 66 and 66.5
cytotoxicity (FIG. 38G) (CD33+ MOLM14 cells; switch 400 pM): 59.5 and 60.9
IFNg in supernatant (FIG. 38H) (MOLM14 cell line): 448.47 and 374.76
Il-2 in supernatant (FIG. 38H) (MOLM14 cell line): 328.62 and 234
TNFa in supernatant (FIG. 38H) (MOLM14 cell line): 53.4 and 44.84

anti-CD19 IgG LCNT: FMC63 anti-CD19 IgG, peptide on N-terminus of light chain (SEQ ID 36 & 28)
tumor burden (IVIS) (Nalm-6^Luc/GFP cells; 0.5 mg/kg every 5 days for 15 days (3 doses)): unable to significantly control tumor burden
tumor growth (Nalm-6^Luc/GFP cells; 1 mg/kg every day for 10 d): unable to control tumor growth

hP67.6 NTBV: anti-CD33 hP67.6 Fab, N-terminal bivalent (SEQ ID 217 & 220)
cytotoxicity (FIG. 38G) (CD33+ MOLM14 cells; switch 0.1 pM): 0
cytotoxicity (FIG. 38G) (CD33+ MOLM14 cells; switch 0.64 pM): 0.9 and 0.8
cytotoxicity (FIG. 38G) (CD33+ MOLM14 cells; switch 3.2 pM): 23.6 and 28.4
cytotoxicity (FIG. 38G) (CD33+ MOLM14 cells; switch 16 pM): 55.4 and 57.1
cytotoxicity (FIG. 38G) (CD33+ MOLM14 cells; switch 80 pM): 69.7 and 69.2
cytotoxicity (FIG. 38G) (CD33+ MOLM14 cells; switch 400 pM): 69.3 and 69.5
IFNg in supernatant (FIG. 38H) (MOLM14 cell line): 957.81 and 958.26
Il-2 in supernatant (FIG. 38H) (MOLM14 cell line): 936.57 and 898.28
TNFa in supernatant (FIG. 38H) (MOLM14 cell line): 98.48 and 97.95

B1: 32716 NTBv: anti-CD123 clone 32716 Fab, N-terminal bivalent (protein)
light: NYHLENEVARLKKLGGGGSDIVLTQSPASLAVSLGQRATISCRASESVDNYGNTFMHWYQQKPGQPPKLLIYRASNLESGIPARFSGSGSRTDFTLTINPVEADDVATYYCQQSNEDPPTFGAGTKLELRTVAAPSVFIFPPSDEQLKSGTASVVCLLNNFYPREAKVQWKVDNALQSGNSQESVTEQDSKDSTYSLSSTLTLSKADYEKHKVYACEVTHQGLSSPVTKSFNRGEC
heavy: NYHLENEVARLKKLLVGEAAAKEAAAKAQIQLVQSGPELKKPGETVKISCKASGYIFTNYGMNWVKQAPGKSFKWMGWINTYTGESTYSADFKGRFAFSLETSASTAYLHINDLKNEDTATYFCARSGGYDPMDYWGQGTSVTVSSARTKGPSVFPLAPSSKSTSGGTAALGCLVKDYFPEPVTVSWNSGALTSGVHTFPAVLQSSGLYSLSSVVTVPSSSLGTQTYICNVNHKPSNTKVDKKVEPKSC
Percent of cytotoxicity in target cells (CD123+ MOLM14 cells; FIG. 38K, clone 32716, switch 0.01 pM): 0%
Percent of cytotoxicity in target cells (CD123+ MOLM14 cells; FIG. 38K, clone 32716, switch 0.128 pM): 2.2% and 3.1%
Percent of cytotoxicity in target cells (CD123+ MOLM14 cells; FIG. 38K, clone 32716, switch 0.64 pM): 1.6% and −6.4%
Percent of cytotoxicity in target cells (CD123+ MOLM14 cells; FIG. 38K, clone 32716, switch 3.2 pM): 6.4% and 0.2%
Percent of cytotoxicity in target cells (CD123+ MOLM14 cells; FIG. 38K, clone 32716, switch 16 pM): 13.7% and 12.6%
Percent of cytotoxicity in target cells (CD123+ MOLM14 cells; FIG. 38K, clone 32716, switch 80 pM): 27% and 28.5%
Percent of cytotoxicity in target cells (CD123+ MOLM14 cells; FIG. 38K, clone 32716, switch 400 pM): 50.9% and 44.5%
Percent of cytotoxicity in target cells (CD123+ MOLM14 cells; FIG. 38K, clone 32716, switch 2000 pM): 60.9% and 55.7%
Percent of cytotoxicity in target cells (CD123+ MOLM14 cells; FIG. 38K, clone 32716, switch 10000 pM): 58.3% and 51%

B2: 26292 NTBv: anti-CD123 clone 26292 Fab, N-terminal bivalent (protein)
light: NYHLENEVARLKKLGGGGSDVQITQSPSYLAASPGETITINCRASKSISKDLAWYQEKPGKTNKLLIYSGSTLQSGIPSRFSGSGSGTDFTLTISSLEPEDFAMYYCQQHNKYPYTFGGGTKLEIRTVAAPSVFIFPPSDEQLKSGTASVVCLLNNFYPREAKVQWKVDNALQSGNSQESVTEQDSKDSTYSLSSTLTLSKADYEKHKVYACEVTHQGLSSPVTKSFNRGEC
heavy: NYHLENEVARLKKLLVGEAAAKEAAAKAQVQLQQPGAELVRPGASVKLSCKASGYTFTSYWMNWVKQRPDQGLEWIGRIDPYDSETHYNQKFKDKAILTVDKSSSTAYMQLSSLTSEDSAVYYCARGNWDDYWGQGTTLTVSSARTKGPSVFPLAPSSKSTSGGTAALGCLVKDYFPEPVTVSWNSGALTSGVHTFPAVLQSSGLYSLSSVVTVPSSSLGTQTYICNVNHKPSNTKVDKKVEPKSC
Percent of cytotoxicity in target cells (CD123+ MOLM14 cells; FIG. 38J, clone 26292, switch 0.01 pM): 0%
Percent of cytotoxicity in target cells (CD123+ MOLM14 cells; FIG. 38J, clone 26292, switch 0.128 pM): 2% and 3.4%
Percent of cytotoxicity in target cells (CD123+ MOLM14 cells; FIG. 38J, clone 26292, switch 0.64 pM): 7.4% and 6.4%
Percent of cytotoxicity in target cells (CD123+ MOLM14 cells; FIG. 38J, clone 26292, switch 3.2 pM): 9.8% and 4.1%
Percent of cytotoxicity in target cells (CD123+ MOLM14 cells; FIG. 38J, clone 26292, switch 16 pM): 16.5% and 19.3%
Percent of cytotoxicity in target cells (CD123+ MOLM14 cells; FIG. 38J, clone 26292, switch 80 pM): 31.4% and 33.2%
Percent of cytotoxicity in target cells (CD123+ MOLM14 cells; FIG. 38J, clone 26292, switch 400 pM): 57.5% and 55.5%
Percent of cytotoxicity in target cells (CD123+ MOLM14 cells; FIG. 38J, clone 26292, switch 2000 pM): 64.2% and 62.1%
Percent of cytotoxicity in target cells (CD123+ MOLM14 cells; FIG. 38J, clone 26292, switch 10000 pM): 55.3% and 57.4%

From patent US11091546B2, “Optimized PNE-based chimeric receptor T cell switches and uses thereof” (The Scripps Research Institute, priority 2015, dated 2021)
